From patent publication US20230407367, “INTRINSICALLY DISORDERED PROTEINS FOR EXTRACTION OF NUCLEIC ACIDS” (published 2023)

Experiments:
[1] = target: T1, E3 ELP [(VPGXG)10-GKG]8 (synthetic construct); experiment: coacervate partitioning at 55 C, no added NaCl, 100 mM sodium phosphate pH 7.0; 100 mM NaCl leaves much more DNA in dilute phase; conditions: label: 5'-Cy3
T1 chain: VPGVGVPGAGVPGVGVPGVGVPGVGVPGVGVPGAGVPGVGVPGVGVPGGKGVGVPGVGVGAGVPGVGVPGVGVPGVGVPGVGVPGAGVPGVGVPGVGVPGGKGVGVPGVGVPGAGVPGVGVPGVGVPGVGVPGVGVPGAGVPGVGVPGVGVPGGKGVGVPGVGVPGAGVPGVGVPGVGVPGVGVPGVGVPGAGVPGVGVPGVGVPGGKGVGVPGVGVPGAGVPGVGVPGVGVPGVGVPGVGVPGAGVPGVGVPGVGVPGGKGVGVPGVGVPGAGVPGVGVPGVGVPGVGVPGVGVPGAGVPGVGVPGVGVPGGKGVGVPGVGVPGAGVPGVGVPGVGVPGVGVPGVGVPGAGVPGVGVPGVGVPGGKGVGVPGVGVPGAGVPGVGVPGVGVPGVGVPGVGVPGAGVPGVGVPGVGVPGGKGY
Text: Across all t=0 samples at room temperature (T<Tt) no E3 condensates are observed (FIG. 3, A1 and D1) and all solution components are miscible and evenly distributed throughout the droplet volume (FIG. 3, A2, D2, A3 and D3). The incipient stages of thermally triggered E3 phase transition occur simultaneously throughout droplet volumes, corroborating demixing through spinodal decomposition for both +NaCl and −NaCl samples (FIG. 3, B1 and E1). […] Note that the recruitment of ssDNA-Cy3 into the E3 rich condensates is E3 concentration dependent. By contrast, addition of NaCl results in electrostatic shielding, partitioning more ssDNA-Cy3 in the solvent-rich phase (FIG. 3, B2 and C2). The combined E3 phase behavior and ssDNA-Cy3 partitioning for −NaCl and +NaCl is further evidenced by inspection of the merged brightfield and fluorescence microscopy images of FIG. 3, panels A3-F3.
To image the process of temperature-mediated E3 coacervation and interaction with DNA-Cy3, an Olympus IX83 fluorescence microscope (Olympus Life Science Technology Division, Center Valley, PA) was equipped with a Physitemp cooling and heating stage (TS4-MP/ER/PTU, Clifton, NJ) fitted with a temperature controller. Microfluidic droplets were generated using previously described methods and droplet generator. […]

[2] = target: T2, H-20 His-ELP (synthetic construct); experiment: EMSA; pH 6, room temperature, 0.1-100 uM; weaker than H-24
T2 chain: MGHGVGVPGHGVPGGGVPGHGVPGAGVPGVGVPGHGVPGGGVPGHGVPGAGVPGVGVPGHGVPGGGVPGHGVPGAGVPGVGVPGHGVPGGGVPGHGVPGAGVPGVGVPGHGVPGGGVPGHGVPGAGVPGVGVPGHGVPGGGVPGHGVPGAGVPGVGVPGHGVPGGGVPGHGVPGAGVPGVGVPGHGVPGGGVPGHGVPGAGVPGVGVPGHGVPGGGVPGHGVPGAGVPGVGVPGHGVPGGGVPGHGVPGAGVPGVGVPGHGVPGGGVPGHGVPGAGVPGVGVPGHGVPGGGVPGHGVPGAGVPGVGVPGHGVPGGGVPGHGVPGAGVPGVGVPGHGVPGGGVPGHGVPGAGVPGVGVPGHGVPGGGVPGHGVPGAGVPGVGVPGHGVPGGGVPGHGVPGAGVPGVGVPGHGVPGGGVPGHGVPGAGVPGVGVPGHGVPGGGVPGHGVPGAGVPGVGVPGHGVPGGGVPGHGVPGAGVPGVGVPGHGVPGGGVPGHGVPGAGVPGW
Experimental: (§1) According to the prediction of His-ELP charge as a function of pH (FIG. 1l A), at pH 6, H-20 (SEQ. ID. NO. 8) is expected to have a charge of ≈+33 and H-24 (SEQ. ID. NO. 9) is expected to have a greater charge of ≈+39 as it has more histidines in its sequence. The primary association between His-ELPs and NAs is via electrostatic interactions; thus, the protein with greater charge is expected to have a more robust binding activity. Gel retardation assays were performed to analyze the binding activity of the His-ELPs (and another ELP with 8 cationic lysine charges, E3) with tRNA and ssDNA as a function of protein concentration at pH 6 (FIG. 12). Binding and gel electrophoresis were conducted at room temperature, below the Tt of each of the proteins, and for both tRNA and ssDNA, the degree of NA migration retardation was dependent on protein concentration (see FIG. 4).

[3] = target: T3, H-24 His-ELP (synthetic construct); experiment: EMSA; pH 6, room temperature, 0.1-100 uM
T3 chain: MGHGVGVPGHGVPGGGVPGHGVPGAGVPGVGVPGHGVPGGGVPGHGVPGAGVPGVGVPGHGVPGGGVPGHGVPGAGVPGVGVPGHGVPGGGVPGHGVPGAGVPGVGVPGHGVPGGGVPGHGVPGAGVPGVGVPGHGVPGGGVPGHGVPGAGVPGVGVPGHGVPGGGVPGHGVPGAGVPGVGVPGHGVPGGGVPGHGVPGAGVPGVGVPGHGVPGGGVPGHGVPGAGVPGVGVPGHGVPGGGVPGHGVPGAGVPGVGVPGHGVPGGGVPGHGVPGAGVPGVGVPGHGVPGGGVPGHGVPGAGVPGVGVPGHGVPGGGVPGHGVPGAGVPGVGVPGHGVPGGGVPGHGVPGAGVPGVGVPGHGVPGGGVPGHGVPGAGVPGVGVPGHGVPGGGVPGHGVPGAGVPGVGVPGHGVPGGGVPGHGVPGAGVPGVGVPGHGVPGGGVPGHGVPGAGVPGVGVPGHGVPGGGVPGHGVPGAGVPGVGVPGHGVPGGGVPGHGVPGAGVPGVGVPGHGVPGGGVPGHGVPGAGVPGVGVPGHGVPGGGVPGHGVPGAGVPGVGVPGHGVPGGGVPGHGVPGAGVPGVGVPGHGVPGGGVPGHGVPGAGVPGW
Experimental: as §1

Row | Binder | binding result [1] | binding result [2] | binding result [3]
1 | TTTTTCCTAGAGAGTAGAGCCTGCTTCG (ssDNA) [Cy3-ssDNA (DNA-Cy3)] | binds |  | 
2 | TTTTTCCTAGAGAGTAGAGCCTGCTTCG (ssDNA) [ssDNA 28 nt] |  | binds | binds
